Common to all, as to experiment: Adhesion of radioactively labeled bacteria to treated hydroxyapatite (HA)
Common to all, as to type: cell-based

For one assay, the system named is Actinomyces viscosus. As to conditions: HA treated with the protein/peptide, saliva-treated HA = 100%. The procedure:
(§1) PRP-1 and PRP-1(Tl) were investigated for their abilities to promote adhesion of bacteria to HA. Essentially, the method is to treat HA samples with nothing (negative control), saliva (positive control), or the respective proteins or peptides. The excess agent is removed by washing, and suspensions of radioactively labeled bacteria are added to the treated HA. After a suitable time, the excess bacteria are removed by washing and those remaining adsorbed to the HA are counted in a scintillation counter. In the table of results, bacterial adsorption to saliva-treated HA is considered to be 100%, and adsorption to PRP-1 or PRP-1(Tl)-treated HA expressed as a percentage of this reference value. This approach is necessary because of the diverse behaviors of different bacteria.

The test system of the next assay is Bacteroides gingivalis. The procedure: as §1
Another assay has as its system Streptococcus mitis. The settings on record: HA treated with the protein/peptide, saliva-treated HA = 100%. The protocol: as §1
The test system of a further assay is Streptococcus mutans. As to conditions: HA treated with the protein/peptide, saliva-treated HA = 100%. The protocol:
as §1

In another assay the test system is Streptococcus sanguis. The procedure: as §1

B1: PRP-1: acidic proline-rich phosphoprotein derived from human saliva, 150 residues; sequence shown in the diagram (protein, UniProt P02810 17-166, looked up)
Salivary acidic proline-rich …: QDLDEDVSQEDVPLVISDGGDSEQFIDEERQGPPLGGQQSQPSAGDGNQNDGPQQGPPQQGGQQQQGPPPPQGKPQGPPQQGGHPPPPQGRPQGPPQQGGHPRPPRGRPQGPPQQGGHQQGPPPPPPGKPQGPPPQGGRPQGPPQGQSPQ
For B1, the “PERCENT ADHESION COMPARED TO SALIVA-TREATED HA” value in the assay with Actinomyces viscosus was 105%; in the assay with Bacteroides gingivalis (Bacteroides gingivalis, HA treated with the protein/peptide, saliva-treated HA = 100%), 335%; with Streptococcus mitis, 38%; in the assay with Streptococcus mutans, 81%; in the assay with Streptococcus sanguis (Streptococcus sanguis, HA treated with the protein/peptide, saliva-treated HA = 100%), 144%. In addition, the “adhesion of organism to treated HA (in words)” value is reported as “higher than adhesion to saliva-treated HA” in the assay on Bacteroides gingivalis (B. gingivalis, versus saliva-treated HA) and “higher than adhesion to saliva-treated HA” with Streptococcus sanguis (S. sanguis, versus saliva-treated HA).

The values are drawn from patent publication US5013542A, “Method to inhibit adhesion of disease-causing microorganisms to teeth” (Forsyth Dental Infirmary for Children, priority 1988, dated 1991).
